The target of this test is T1, full-length human nephrocystin-5 (NPHP5), yeast two-hybrid fusion (human, UniProt Q15051 1-598).
T1 construct: Full-length NPHP5 cDNA (598 amino acid residues) fused to a GAL4 domain; also called KIAA0036
T1 sequence: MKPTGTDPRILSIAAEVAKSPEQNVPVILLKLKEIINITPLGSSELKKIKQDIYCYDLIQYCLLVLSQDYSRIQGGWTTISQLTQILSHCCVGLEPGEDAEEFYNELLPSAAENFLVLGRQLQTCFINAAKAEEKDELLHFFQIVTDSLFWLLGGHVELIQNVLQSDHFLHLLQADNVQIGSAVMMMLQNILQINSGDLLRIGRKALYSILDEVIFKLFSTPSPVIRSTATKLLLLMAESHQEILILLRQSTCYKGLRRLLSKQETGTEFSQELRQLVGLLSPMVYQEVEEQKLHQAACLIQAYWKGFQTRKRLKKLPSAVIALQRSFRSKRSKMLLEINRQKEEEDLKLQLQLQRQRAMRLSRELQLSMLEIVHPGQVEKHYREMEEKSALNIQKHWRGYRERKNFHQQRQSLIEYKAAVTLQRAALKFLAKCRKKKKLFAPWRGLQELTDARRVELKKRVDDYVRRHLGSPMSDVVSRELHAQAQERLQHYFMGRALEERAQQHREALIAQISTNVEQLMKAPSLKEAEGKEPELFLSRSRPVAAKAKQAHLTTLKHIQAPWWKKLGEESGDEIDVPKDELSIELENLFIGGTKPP
Description: direct yeast two-hybrid assay.

B1: BBS4, human full length, yeast two-hybrid prey (other, UniProt Q96RK4 1-519, looked up, not shown: large carriers)
chain: MAEERVATRTQFPVSTESQKPRQKKAPEFPILEKQNWLIHLHYIRKDYEACKAVIKEQLQETQGLCEYAIYVQALIFRLEGNIQESLELFQTCAVLSPQSADNLKQVARSLFLLGKHKAAIEVYNEAAKLNQKDWEISHNLGVCYIYLKQFNKAQDQLHNALNLNRHDLTYIMLGKIHLLEGDLDKAIEVYKKAVEFSPENTELLTTLGLLYLQLGIYQKAFEHLGNALTYDPTNYKAILAAGSMMQTHGDFDVALTKYRVVACAVPESPPLWNNIGMCFFGKKKYVAAISCLKRANYLAPFDWKILYNLGLVHLTMQQYASAFHFLSAAINFQPKMGELYMLLAVALTNLEDIENAKRAYAEAVHLDKCNPLVNLNYAVLLYNQGEKKNALAQYQEMEKKVSLLKDNSSLEFDSEMVEMAQKLGAALQVGEALVWTKPVKDPKSKHQTTSTSKPASFQQPLGSNQALGQAMSSAAAYRTLPSGAGGTSQFTKPPSLPLEPEPAVESSPTETSEQIREK
For the molecule B1, the binding result is “no binding”.

B2: BBS6, human full length, yeast two-hybrid prey (other, UniProt Q9NPJ1 1-570, looked up, not shown: large carriers)
chain: MSRLEAKKPSLCKSEPLTTERVRTTLSVLKRIVTSCYGPSGRLKQLHNGFGGYVCTTSQSSALLSHLLVTHPILKILTASIQNHVSSFSDCGLFTAILCCNLIENVQRLGLTPTTVIRLNKHLLSLCISYLKSETCGCRIPVDFSSTQILLCLVRSILTSKPACMLTRKETEHVSALILRAFLLTIPENAEGHIILGKSLIVPLKGQRVIDSTVLPGILIEMSEVQLMRLLPIKKSTALKVALFCTTLSGDTSDTGEGTVVVSYGVSLENAVLDQLLNLGRQLISDHVDLVLCQKVIHPSLKQFLNMHRIIAIDRIGVTLMEPLTKMTGTQPIGSLGSICPNSYGSVKDVCTAKFGSKHFFHLIPNEATICSLLLCNRNDTAWDELKLTCQTALHVLQLTLKEPWALLGGGCTETHLAAYIRHKTHNDPESILKDDECTQTELQLIAEAFCSALESVVGSLEHDGGEILTDMKYGHLWSVQADSPCVANWPDLLSQCGCGLYNSQEELNWSFLRSTRRPFVPQSCLPHEAVGSASNLTLDCLTAKLSGLQVAVETANLILDLSYVIEDKN
B2: the binding result is on record as “no binding”.

B3: BBS5, human full length, yeast two-hybrid prey (other, UniProt Q8N3I7 1-341, looked up, not shown: large carriers)
chain: MSVLDALWEDRDVRFDLSAQQMKTRPGEVLIDCLDSIEDTKGNNGDRGRLLVTNLRILWHSLALSRVNVSVGYNCILNITTRTANSKLRGQTEALYILTKCNSTRFEFIFTNLVPGSPRLFTSVMAVHRAYETSKMYRDFKLRSALIQNKQLRLLPQEHVYDKINGVWNLSSDQGNLGTFFITNVRIVWHANMNDSFNVSIPYLQIRSIKIRDSKFGLALVIESSQQSGGYVLGFKIDPVEKLQESVKEINSLHKVYSASPIFGVDYEMEEKPQPLEALTVEQIQDDVEIDSDGHTDAFVAYFADGNKQQDREPVFSEELGLAIEKLKDGFTLQGLWEVMS
Regarding B3, the binding result was “no binding”.

B4: BBS1, human full length, yeast two-hybrid prey (other, UniProt Q8NFJ9 1-593, looked up, not shown: large carriers)
chain: MAAASSSDSDACGAESNEANSKWLDAHYDPMANIHTFSACLALADLHGDGEYKLVVGDLGPGGQQPRLKVLKGPLVMTESPLPALPAAAATFLMEQHEPRTPALALASGPCVYVYKNLRPYFKFSLPQLPPNPLEQDLWNQAKEDRIDPLTLKEMLESIRETAEEPLSIQSLRFLQLELSEMEAFVNQHKSNSIKRQTVITTMTTLKKNLADEDAVSCLVLGTENKELLVLDPEAFTILAKMSLPSVPVFLEVSGQFDVEFRLAAACRNGNIYILRRDSKHPKYCIELSAQPVGLIRVHKVLVVGSTQDSLHGFTHKGKKLWTVQMPAAILTMNLLEQHSRGLQAVMAGLANGEVRIYRDKALLNVIHTPDAVTSLCFGRYGREDNTLIMTTRGGGLIIKILKRTAVFVEGGSEVGPPPAQAMKLNVPRKTRLYVDQTLREREAGTAMHRAFQTDLYLLRLRAARAYLQALESSLSPLSTTAREPLKLHAVVQGLGPTFKLTLHLQNTSTTRPVLGLLVCFLYNEALYSLPRAFFKVPLLVPGLNYPLETFVESLSNKGISDIIKVLVLREGQSAPLLSAHVNMPGSEGLAAA
As for B4, the binding result is given as “no binding”.

B5: BBS8, human full length, yeast two-hybrid prey (other, UniProt Q8TAM2 1-541, looked up, not shown: large carriers)
chain: MSSEMEPLLLAWSYFRRRKFQLCADLCTQMLEKSPYDQEPDPELPVHQAAWILKARALTEMVYIDEIDVDQEGIAEMMLDENAIAQVPRPGTSLKLPGTNQTGGPSQAVRPITQAGRPITGFLRPSTQSGRPGTMEQAIRTPRTAYTARPITSSSGRFVRLGTASMLTSPDGPFINLSRLNLTKYSQKPKLAKALFEYIFHHENDVKTIHLEDVVLHLGIYPFLLRNKNHIEKNALDLAALSTEHSQYKDWWWKVQIGKCYYRLGMYREAEKQFKSALKQQEMVDTFLYLAKVYVSLDQPVTALNLFKQGLDKFPGEVTLLCGIARIYEEMNNMSSAAEYYKEVLKQDNTHVEAIACIGSNHFYSDQPEIALRFYRRLLQMGIYNGQLFNNLGLCCFYAQQYDMTLTSFERALSLAENEEEAADVWYNLGHVAVGIGDTNLAHQCFRLALVNNNNHAEAYNNLAVLEMRKGHVEQARALLQTASSLAPHMYEPHFNFATISDKIGDLQRSYVAAQKSEAAFPDHVDTQHLIKQLRQHFAML
With B5, the binding result is “no binding”.

These data come from US7838231 (REGENTS OF THE UNIVERSITY OF MICHIGAN, dated 2010).
